Measured values: patent US20240425571A1 (OHIO STATE INNOVATION FOUNDATION, published 2024)

Assays:
[1] = biological target: T1, human GARP (glycoprotein A repetitions predominant, LRRC32) on the cell surface (human, UniProt Q14392 20-662); test: FACS, Ag(+) cells, supernatant heated 70 C 5 min, 5 ug/ml
T1 construct: whole, on cells; also called hGARP; free GARP
T1 sequence (looked up): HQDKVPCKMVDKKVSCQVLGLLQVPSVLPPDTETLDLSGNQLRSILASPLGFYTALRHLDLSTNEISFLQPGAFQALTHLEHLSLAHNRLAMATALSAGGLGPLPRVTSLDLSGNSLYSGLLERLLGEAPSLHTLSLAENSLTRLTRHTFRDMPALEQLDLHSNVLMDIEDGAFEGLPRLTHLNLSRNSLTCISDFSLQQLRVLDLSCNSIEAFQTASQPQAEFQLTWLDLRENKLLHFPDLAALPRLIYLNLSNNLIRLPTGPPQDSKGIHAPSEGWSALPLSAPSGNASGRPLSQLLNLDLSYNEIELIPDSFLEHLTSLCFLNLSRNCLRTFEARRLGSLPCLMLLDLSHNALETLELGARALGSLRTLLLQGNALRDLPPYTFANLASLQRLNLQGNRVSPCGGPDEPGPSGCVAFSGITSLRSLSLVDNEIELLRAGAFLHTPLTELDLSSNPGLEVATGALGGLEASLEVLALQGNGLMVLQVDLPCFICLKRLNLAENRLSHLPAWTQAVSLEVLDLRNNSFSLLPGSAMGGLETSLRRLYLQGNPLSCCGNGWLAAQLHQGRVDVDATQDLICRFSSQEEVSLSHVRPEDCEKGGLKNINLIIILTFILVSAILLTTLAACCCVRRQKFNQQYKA

[2] = biological target: T1, human GARP (glycoprotein A repetitions …); test: FACS, Ag(+) cells, culture supernatant, 5 ug/ml
[3] = biological target: T1, human GARP (glycoprotein A repetitions …); test: FACS, Ag(+) cells, culture supernatant, 1 ug/ml
[4] = biological target: T1, human GARP (glycoprotein A repetitions …); test: FACS, Ag(+) cells, culture supernatant, 0.2 ug/ml
[5] = biological target: T1, human GARP (glycoprotein A repetitions …); test: FACS, Ag(+) cells, 0 ug/ml antibody (blank)
[6] = biological target: T2, human GARP (antigen, construct not stated) (human, UniProt Q14392 20-627, limits assumed); test: Gator label-free kinetics, IgG on anti-human Fc probe, antigen 5 ug/ml
T2 sequence (looked up): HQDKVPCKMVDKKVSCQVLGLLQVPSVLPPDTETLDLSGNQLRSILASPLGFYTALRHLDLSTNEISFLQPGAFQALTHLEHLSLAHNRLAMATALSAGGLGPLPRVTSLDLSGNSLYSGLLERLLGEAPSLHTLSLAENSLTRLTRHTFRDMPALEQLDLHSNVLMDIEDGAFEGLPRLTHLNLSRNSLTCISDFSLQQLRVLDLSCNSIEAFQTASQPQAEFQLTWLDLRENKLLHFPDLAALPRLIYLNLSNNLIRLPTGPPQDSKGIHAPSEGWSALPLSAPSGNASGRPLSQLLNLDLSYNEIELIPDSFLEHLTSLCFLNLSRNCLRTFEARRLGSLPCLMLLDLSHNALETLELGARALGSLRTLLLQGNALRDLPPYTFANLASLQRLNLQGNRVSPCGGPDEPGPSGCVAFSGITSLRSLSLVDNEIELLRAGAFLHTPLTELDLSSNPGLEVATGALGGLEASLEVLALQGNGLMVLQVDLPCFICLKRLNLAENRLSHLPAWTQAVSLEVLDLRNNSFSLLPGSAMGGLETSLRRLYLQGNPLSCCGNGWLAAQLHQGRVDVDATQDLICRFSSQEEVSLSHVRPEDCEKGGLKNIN

[7] = biological target: T1, human GARP (glycoprotein A repetitions …); test: FACS, Ag(+) cells, heated-sample series, 0 ug/ml antibody (blank)
[8] = biological target: T1, human GARP (glycoprotein A repetitions …); test: FACS, Ag(+) cells, supernatant heated 70 C 5 min, 0.2 ug/ml
[9] = biological target: T1, human GARP (glycoprotein A repetitions …); test: FACS, Ag(+) cells, supernatant heated 70 C 5 min, 1 ug/ml

B1: huPIIO-1VH1VL1 (antibody, V domains shown)
VH: QVQLQESGPGLVKPSQTLSLTCTVSGYSITSDYAWNWIRQFPGNKLEWMGYISYSGSTSYTPSLKSRVTISRDTSKNHFSLKLSSVTAADTAVYYCAKSGGDYYGSSSYWYFDVWGQGTMVTVSS
VL: DIVLTQSPSSLAVSLGERATMNCKSSQSLLNSRSQKNYLAWYQQKPGQPPKLLIYGASTRGSGVPDRFSGSGSGTDFTLTISSLQAEDVAVYYCQNDHSYPFTFGQGTKLEIKR
notes: Humanized 4D3/PIIO-1 IgG made in Expi293 cells; also called H1L1; HuPIIO-1VH1/L1
In the case of B1, the MFI [1] is reported as 26.2 MFI, the MFI [2] is reported as 26.4 MFI and the MFI [3] is reported as 25.8 MFI. The MFI [4] was 23.9 MFI, the MFI [5] was 9.91 MFI and the Kd [6] was 8.05 nM. The Req [6] was 0.743, the Response [6] was 0.737 and the kobs [6] was 0.0134. For the same binder, the MFI [7] was 9.91 MFI.

B2: huPIIO-1VH2VL2 (antibody, V domains shown)
VH: QVQLQESGPGLVKPSQTLSLTCTVSGYSITSDYAWNWIRQFPGNKLEWMGYISYSGSTSYTPSLKSRITISRDTSKNHFFLKLSSVTAADTAVYYCAKSGGDYYGSSSYWYFDVWGQGTMVTVSS
VL: DIVLTQSPSSLAVSLGERVTMNCKSSQSLLNSRSQKNYLAWYQQKPGQPPKLLIYGASTRGSGVPDRFSGSGSGTDFTLTISSVQAEDVAVYYCQNDHSYPFTFGQGTKLEIKR
notes: Humanized IgG from Expi293, tested as culture supernatant; also called H2L2; HuPIIO-1VH2/L2
For B2, the MFI [1] was 26.1 MFI, the MFI [2] was 26.2 MFI and the MFI [8] was 22.6 MFI. For the same binder, the MFI [9] was 24.8 MFI, the MFI [4] was 23.2 MFI and the MFI [5] was 9.91 MFI. The MFI [7] was 9.91 MFI.

B3: huPIIO-1VH3VL3 (antibody, V domains shown)
VH: DVQLQESGPGLVKPSQTLSLTCTVSGYSITSDYAWNWIRQFPGNKLEWMGYISYSGSTSYTPSLKSRITISRDTSKNHFFLKLSSVTAADTATYYCAKSGGDYYGSSSYWYFDVWGQGTTVTVSS
VL: DIVLTQSPSSLAVSAGERVTMSCKSSQSLLNSRSQKNYLAWYQQKPGQPPKLLIYGASTRGSGVPDRFSGSGSGTDFTLTISSVQAEDVAVYYCQNDHSYPFTFGSGTKLEIKR
notes: Humanized IgG from Expi293, tested as culture supernatant; also called H3L3; HuPIIO-1VH3/L3
With B3 the MFI [1] was 25.8 MFI, the MFI [2] was 26.2 MFI and the MFI [3] was 25.3 MFI. For the same binder, the MFI [8] was 22.1 MFI, the MFI [9] was 24.6 MFI and the MFI [4] was 21.9 MFI. For the same binder, the MFI [5] was 9.91 MFI and the MFI [7] was 9.91 MFI.

B4: huPIIO-1VH3VL1 (antibody, V domains shown)
VH: DVQLQESGPGLVKPSQTLSLTCTVSGYSITSDYAWNWIRQFPGNKLEWMGYISYSGSTSYTPSLKSRITISRDTSKNHFFLKLSSVTAADTATYYCAKSGGDYYGSSSYWYFDVWGQGTTVTVSS
VL: DIVLTQSPSSLAVSLGERATMNCKSSQSLLNSRSQKNYLAWYQQKPGQPPKLLIYGASTRGSGVPDRFSGSGSGTDFTLTISSLQAEDVAVYYCQNDHSYPFTFGQGTKLEIKR
notes: Humanized IgG from Expi293, tested as culture supernatant; also called H3L1; HuPIIO-1VH3/L1
With B4 the MFI [1] was 25.7 MFI, the MFI [2] was 26.7 MFI and the MFI [3] was 25.1 MFI. It also gave an MFI [8] of 23.6 MFI, an MFI [4] of 23.9 MFI and an MFI [5] of 9.91 MFI. It also gave an MFI [7] of 9.91 MFI.

B5: huPIIO-1VH1VL3 (antibody, V domains shown)
VH: QVQLQESGPGLVKPSQTLSLTCTVSGYSITSDYAWNWIRQFPGNKLEWMGYISYSGSTSYTPSLKSRVTISRDTSKNHFSLKLSSVTAADTAVYYCAKSGGDYYGSSSYWYFDVWGQGTMVTVSS
VL: DIVLTQSPSSLAVSAGERVTMSCKSSQSLLNSRSQKNYLAWYQQKPGQPPKLLIYGASTRGSGVPDRFSGSGSGTDFTLTISSVQAEDVAVYYCQNDHSYPFTFGSGTKLEIKR
notes: Humanized IgG from Expi293, tested as culture supernatant; also called H1L3; HuPIIO-1VH1/L3
B5 was tested, and the MFI [1] was 26.3 MFI, the MFI [2] was 26.3 MFI and the MFI [3] was 25.7 MFI. It also gave an MFI [8] of 23 MFI, an MFI [9] of 25.4 MFI and an MFI [4] of 22.9 MFI. It also gave an MFI [5] of 9.91 MFI and an MFI [7] of 9.91 MFI.

B6: huPIIO-1VH2VL1 (antibody, V domains shown)
VH: QVQLQESGPGLVKPSQTLSLTCTVSGYSITSDYAWNWIRQFPGNKLEWMGYISYSGSTSYTPSLKSRITISRDTSKNHFFLKLSSVTAADTAVYYCAKSGGDYYGSSSYWYFDVWGQGTMVTVSS
VL: DIVLTQSPSSLAVSLGERATMNCKSSQSLLNSRSQKNYLAWYQQKPGQPPKLLIYGASTRGSGVPDRFSGSGSGTDFTLTISSLQAEDVAVYYCQNDHSYPFTFGQGTKLEIKR
notes: Humanized IgG from Expi293; also called H2L1; HuPIIO-1VH2/L1
B6 gave an MFI [1] of 26.2 MFI, an MFI [2] of 26.8 MFI and an MFI [8] of 23 MFI. For the same binder, the MFI [9] was 25.1 MFI, the MFI [4] was 23.3 MFI and the MFI [5] was 9.91 MFI. It also gave a Kd [6] of 8.03 nM, a Req [6] of 0.71 and a Response [6] of 0.703. For the same binder, the kobs [6] was 0.0133 and the MFI [7] was 9.91 MFI.

B7: huPIIO-1VH1VL2 (antibody, V domains shown)
VH: QVQLQESGPGLVKPSQTLSLTCTVSGYSITSDYAWNWIRQFPGNKLEWMGYISYSGSTSYTPSLKSRVTISRDTSKNHFSLKLSSVTAADTAVYYCAKSGGDYYGSSSYWYFDVWGQGTMVTVSS
VL: DIVLTQSPSSLAVSLGERVTMNCKSSQSLLNSRSQKNYLAWYQQKPGQPPKLLIYGASTRGSGVPDRFSGSGSGTDFTLTISSVQAEDVAVYYCQNDHSYPFTFGQGTKLEIKR
notes: Humanized IgG from Expi293; also called H1L2; HuPIIO-1VH1/L2
B7 showed an MFI [1] of 25.7 MFI, an MFI [2] of 26.1 MFI and an MFI [3] of 25.2 MFI. For the same binder, the MFI [8] was 21.8 MFI, the MFI [4] was 22.2 MFI and the MFI [5] was 9.91 MFI. The Kd [6] was 8.15 nM, the Req [6] was 0.831 and the Response [6] was 0.824. The kobs [6] was 0.0133 and the MFI [7] was 9.91 MFI.

B8: huPIIO-1VH4VL1 (antibody, V domains shown)
VH: DVQLQESGPGLVKPSQTLSLTCTVSGYSITSDYAWNWIRQFPGNKLEWMGYISYSGSTSYTPSLKSRITISRDTSKNHFFLQLSSVTAEDTATYYCAKSGGDYYGSSSYWYFDVWGQGTTVTVSS
VL: DIVLTQSPSSLAVSLGERATMNCKSSQSLLNSRSQKNYLAWYQQKPGQPPKLLIYGASTRGSGVPDRFSGSGSGTDFTLTISSLQAEDVAVYYCQNDHSYPFTFGQGTKLEIKR
notes: Humanized IgG from Expi293, tested as culture supernatant; also called H4L1; HuPIIO-1VH4/L1
For B8, the MFI [1] was 26.9 MFI, the MFI [2] was 27.3 MFI and the MFI [3] was 26.2 MFI. It also gave an MFI [8] of 24.2 MFI, an MFI [9] of 25.4 MFI and an MFI [4] of 24.8 MFI. The MFI [5] was 9.91 MFI and the MFI [7] was 9.91 MFI.

B9: huPIIO-1VH3VL2 (antibody, V domains shown)
VH: DVQLQESGPGLVKPSQTLSLTCTVSGYSITSDYAWNWIRQFPGNKLEWMGYISYSGSTSYTPSLKSRITISRDTSKNHFFLKLSSVTAADTATYYCAKSGGDYYGSSSYWYFDVWGQGTTVTVSS
VL: DIVLTQSPSSLAVSLGERVTMNCKSSQSLLNSRSQKNYLAWYQQKPGQPPKLLIYGASTRGSGVPDRFSGSGSGTDFTLTISSVQAEDVAVYYCQNDHSYPFTFGQGTKLEIKR
notes: Humanized IgG from Expi293, tested as culture supernatant; also called H3L2
For B9, the MFI [1] was 26.5 MFI, the MFI [2] was 26.4 MFI and the MFI [3] was 24.9 MFI. The MFI [8] was 22.7 MFI, the MFI [9] was 24.6 MFI and the MFI [4] was 22.7 MFI. It also gave an MFI [5] of 9.91 MFI and an MFI [7] of 9.91 MFI.

B10: huPIIO-1VH2VL3 (antibody, V domains shown)
VH: QVQLQESGPGLVKPSQTLSLTCTVSGYSITSDYAWNWIRQFPGNKLEWMGYISYSGSTSYTPSLKSRITISRDTSKNHFFLKLSSVTAADTAVYYCAKSGGDYYGSSSYWYFDVWGQGTMVTVSS
VL: DIVLTQSPSSLAVSAGERVTMSCKSSQSLLNSRSQKNYLAWYQQKPGQPPKLLIYGASTRGSGVPDRFSGSGSGTDFTLTISSVQAEDVAVYYCQNDHSYPFTFGSGTKLEIKR
notes: Humanized IgG from Expi293, tested as culture supernatant; also called H2L3; HuPIIO-1VH2/L3
In the case of B10, the MFI [1] is reported as 26.4 MFI, the MFI [2] is reported as 26.5 MFI and the MFI [3] is reported as 25.6 MFI. The MFI [8] was 23.2 MFI, the MFI [9] was 25.4 MFI and the MFI [4] was 23.4 MFI. For the same binder, the MFI [5] was 9.91 MFI and the MFI [7] was 9.91 MFI.
